Where a chain is given by its changes, count along the chain named. In names and notes the source's numbering stands.
B1: WT: wild type Thermoascus aurantiacus M35 metallo protease, mature peptide amino acids 1 to 177 of SEQ ID NO: 3, no substitution (protein, listed as Thermoascus aurantiacus)
chain: MRLVASLTALVALSVPVFPAAVNVKRASSYLEITLSQVSNTLIKAVVQNTGSDELSFVHLNFFKDPAPVKKVSVYRDGSEVQFEGILSRYKSTGLSRDAFTYLAPGESVEDVFDIASTYDLTSGGPVTIRTEGVVPYATANSTDIAGYISYSSNVLTIDVDGAAAATVSKAITPLDR
B2: JTP050: protease variant of SEQ ID NO: 3: D79L/S87P/A112P/D142L (protein, listed as Thermoascus aurantiacus)
chain: MRLVASLTALVALSVPVFPAAVNVKRASSYLEITLSQVSNTLIKAVVQNTGSDELSFVHLNFFKDPAPVKKVSVYRDGSEVQFEGILSRYKSTGLSRDAFTYLAPGESVEDVFDIASTYDLTSGGPVTIRTEGVVPYATANSTDIAGYISYSSNVLTIDVDGAAAATVSKAITPLDRRTRISSCSGSRQSALTTALRNAASLANAAADAAQSGSASKFSEYFKTTSSSTRQTVAARLRAVAREASSSSSGATTYYCLDPYGYCSPNVLAYTLPSYNIIANCDIFYTYLPPLTSTCHAQDQATTALHEFTHAPGVYSPGTLDLAYGYQAAMGLSSSQAVMNADTYALYANAIYLGC
B3: JTP077: protease variant of SEQ ID NO: 3: A27K/D79L/S87P/A112P/D142L (protein, listed as Thermoascus aurantiacus)
chain: B2 chain with A205K
B4: JTP091: protease variant of SEQ ID NO: 3: D79L/S87P/A112P/T124V/D142L (protein, listed as Thermoascus aurantiacus)
chain: B2 chain with T302V
B5: JTP092: protease variant of SEQ ID NO: 3: ΔS5/N26R/D79L/S87P/A112P/D142L (protein, listed as Thermoascus aurantiacus)
chain: MRLVASLTALVALSVPVFPAAVNVKRASSYLEITLSQVSNTLIKAVVQNTGSDELSFVHLNFFKDPAPVKKVSVYRDGSEVQFEGILSRYKSTGLSRDAFTYLAPGESVEDVFDIASTYDLTSGGPVTIRTEGVVPYATANSTDIAGYISYSSNVLTIDVDGAAAATVSKAITPLDRRTRISCSGSRQSALTTALRNAASLARAAADAAQSGSASKFSEYFKTTSSSTRQTVAARLRAVAREASSSSSGATTYYCLDPYGYCSPNVLAYTLPSYNIIANCDIFYTYLPPLTSTCHAQDQATTALHEFTHAPGVYSPGTLDLAYGYQAAMGLSSSQAVMNADTYALYANAIYLGC
B6: JTP095: protease variant of SEQ ID NO: 3: N26R/T46R/D79L/S87P/A112P/D142L (protein, listed as Thermoascus aurantiacus)
chain: B2 chain with N204R, T224R
B7: JTP096: protease variant of SEQ ID NO: 3: T46R/D79L/S87P/T116V/D142L (protein, listed as Thermoascus aurantiacus)
chain: B2 chain with T224R, P290A, T294V
B8: JTP099: protease variant of SEQ ID NO: 3: D79L/P81R/S87P/A112P/D142L (protein, listed as Thermoascus aurantiacus)
chain: B2 chain with P259R
B9: JTP101: protease variant of SEQ ID NO: 3: A27K/D79L/S87P/A112P/T124V/D142L (protein, listed as Thermoascus aurantiacus)
chain: B2 chain with A205K, T302V
B10: JTP116: protease variant of SEQ ID NO: 3: D79L/Y82F/S87P/A112P/T124V/D142L (protein, listed as Thermoascus aurantiacus)
chain: B2 chain with Y260F, T302V
B11: JTP117: protease variant of SEQ ID NO: 3: D79L/Y82F/S87P/A112P/T124V/D142L (protein, listed as Thermoascus aurantiacus)
chain: B2 chain with Y260F, T302V
B12: JTP127: protease variant of SEQ ID NO: 3: D79L/S87P/A112P/T124V/A126V/D142L (protein, listed as Thermoascus aurantiacus)
chain: B2 chain with T302V, A304V
B13: JTP082: protease variant of SEQ ID NO: 3: ΔS5/D79L/S87P/A112P/D142L (protein, listed as Thermoascus aurantiacus)
chain: B5 chain with R203N
B14: JTP188: protease variant of SEQ ID NO: 3: D79L Y82F S87G D104P A112P D142L (protein, listed as Thermoascus aurantiacus)
chain: B2 chain with Y260F, P265G, D282P
B15: JTP196: protease variant of SEQ ID NO: 3: A27K D79L Y82F S87G D104P A112P A126V D142L (protein, listed as Thermoascus aurantiacus)
chain: B2 chain with A205K, Y260F, P265G, D282P, A304V

Key:
Assay type in all cases: biochemical
[1] = system: zein; experiment: Relative activity assay of protease variants (zein micro titer plate)
Summary of the method: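 Relative activity is the ratio of zein clearance (A630 turbidity) at a higher versus lower temperature, e.g. 60/65 °C or 70/80 °C. Supernatants from 3-day yeast cultures applied to 0.05-0.1% zein agar in 20 mM sodium acetate pH 4.5 with zinc, incubated at least 4 h.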

[2] = system: zein; experiment: Zein-BCA assay, temperature profile of purified protease variants
Experimental: Selected variants showing good thermo-stability were purified and the purified enzymes were used in a zein-BCA assay as described below. The remaining protease activity was determined at 60° C. after incubation of the enzyme at elevated temperatures as indicated for 60 min.
Zein-BCA assay was performed to detect soluble protein quantification released from zein by variant proteases at various temperatures.
• 1) Mix 10 ul of 10 ug/ml enzyme solutions and 100 ul of 0.025% zein solution in a micro titer plate (MTP). • 2) Incubate at various temperatures for 60 min. • 3) Add 10 ul of 100% trichloroacetic acid (TCA) solution. • 4) Centrifuge MTP at 3500 rpm for 5 min. • 5) Take out 15 ul to a new MTP containing 100 ul of BCA assay solution (Pierce Cat#:23225, BCA Protein Assay Kit). • 6) Incubate for 30 min. at 60° C. • 7) Measure A562.

[3] = system: azo-casein; experiment: Remaining activity assay of protease variants (azo-casein); details: pH 4.5, 4° C. as reference; for Remaining activity 80° C.: 10 min at 80° C.; for Remaining activity 84° C.: 10 min at 84° C.
Experimental: Yeast clones on SC-glucose were inoculated to a well of a 96-well micro titre plate and cultivated at 28° C. for 3 days. Protease activity was measured at 65° C. using azo-casein (Megazyme) after incubating the culture supernatant in 20 mM sodium acetate buffer, pH 4.5, for 10 min at a certain temperature (80° C. or 84° C. with 4° C. as a reference) to determine the remaining activity. The clones with higher remaining activity than the parental variant were selected and the sequence was determined.
20 microL of samples were mixed with 150 microL of substrate solution (4 ml of 12.5% azo-casein in ethanol in 96 ml of 20 mM sodium acetate, pH 4.5, containing 0.01% triton-100 and 0.25 mM ZnSO4) and incubated for 4 hours or longer.
After adding 20 microL/well of 100% trichloroacetic acid (TCA) solution, the plate was centrifuge and 100 microL of supernatants were pipette out to measure A440.

[4] = Sample incubated 60 min at 60° C.
[5] = Sample incubated 60 min at 70° C.
[6] = Sample incubated 60 min at 75° C.
[7] = Sample incubated 60 min at 80° C.
[8] = Sample incubated 60 min at 85° C.
[9] = Sample incubated 60 min at 90° C.
[10] = Sample incubated 60 min at 95° C.

| Molecule | Bovine serum albumin equivalent peptide released [2, 4] [µg/mL] | Bovine serum albumin equivalent peptide released [2, 5] [µg/mL] | Bovine serum albumin equivalent peptide released [2, 6] [µg/mL] | Bovine serum albumin equivalent peptide released [2, 7] [µg/mL] | Bovine serum albumin equivalent peptide released [2, 8] [µg/mL] | Bovine serum albumin equivalent peptide released [2, 9] [µg/mL] | Remaining activity 80° C. [3] [%] | Remaining activity 84° C. [3] [%] | also measured |
| --- | --- | --- | --- | --- | --- | --- | --- | --- | --- |
| B1 | 94 | 103 | 107 | 93 | 58 | 38 | – | – | Relative activity 65° C./60° C. ([1]; Table 2): 31%; Relative activity 70° C./65° C. ([1]; Table 3): 59%; Relative activity 75° C./65° C. ([1]; Table 3): 17% |
| B2 | 86 | 101 | 107 | 107 | 104 | 63 | – | – | Relative activity 75° C./65° C. ([1]; Table 3): 88%; Relative activity 75° C./70° C. ([1]; Table 5, upper part): 55%; Relative activity 80° C./70° C. ([1]; Table 5, upper part): 23%; Relative activity 85° C./70° C. ([1]; Table 5, upper part): 9%; Bovine serum albumin equivalent peptide released [2, 10]: 36 µg/mL |
| B3 | 82 | 94 | 104 | 105 | 99 | 56 | – | – | Relative activity 75° C./65° C. ([1]; Table 3): 106%; Bovine serum albumin equivalent peptide released [2, 10]: 31 µg/mL |
| B4 | – | – | – | – | – | – | 43 | – | Relative activity 75° C./65° C. ([1]; Table 4): 154% |
| B5 | – | – | – | – | – | – | – | 60 | – |
| B6 | – | – | – | – | – | – | – | 62 | – |
| B7 | – | – | – | – | – | – | – | 67 | – |
| B8 | – | – | – | – | – | – | – | 80 | – |
| B9 | – | – | – | – | – | – | 81 | – | – |
| B10 | – | – | – | – | – | – | 59 | – | – |
| B11 | – | – | – | – | – | – | 94 | – | – |
| B12 | – | – | – | – | – | – | 53 | – | – |
| B13 | – | – | – | – | – | – | – | 53 | Relative activity 75° C./65° C. ([1]; Table 4): 129% |
| B14 | 71 | 83 | 86 | 93 | 100 | 75 | – | – | Relative activity 80° C./70° C. ([1]; Table 5, upper part): 43%; Bovine serum albumin equivalent peptide released [2, 10]: 53 µg/mL |
| B15 | 87 | 99 | 103 | 106 | 117 | 90 | – | – | Relative activity 75° C./70° C. ([1]; Table 5, lower part): 102%; Relative activity 80° C./70° C. ([1]; Table 5, lower part): 55%; Relative activity 85° C./70° C. ([1]; Table 5, upper part): 18%; Bovine serum albumin equivalent peptide released [2, 10]: 38 µg/mL |

Reference: patent US20170283834A1, “Processes for Producing A Fermentation Product Using A Fermenting Organism” (Novozymes A/S, priority 2014, published 2017)
